According to patent US20220251182A1, “AGENTS WHICH INHIBIT GADS DIMERIZATION AND METHODS OF USE THEREOF” (Technion Research & Development Foundation Limited, priority 2017, published 2022):
Numbering of substitutions follows the chain as printed. In names and notes the source's numbering stands. One block for each molecule: values may come before it. Square brackets hold non-standard residues; d marks the D form. Ends that are not written are not given here. pY = N[C@@H](Cc1ccc(OP(=O)(O)O)cc1)C(=O)O

T1: monomeric Gads SH2 (Homo sapiens, UniProt O75791)
T1 construct: The SH2 only construct encoded residues Q54-Q153 of Gads, and was tagged at the N-terminus with either MBP or His; made in house; host or cells: E. coli BL21 codon-plus
T1 sequence (O75791 54-153): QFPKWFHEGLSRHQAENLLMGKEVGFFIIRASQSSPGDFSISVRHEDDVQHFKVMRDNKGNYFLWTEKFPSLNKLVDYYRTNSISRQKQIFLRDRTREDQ

T2: N-terminally twin-strep-tagged full length human Gads-GFP F92D (human, UniProt O75791 1-330)
T2 construct: Expressed in dG32 T cells and in Gads-deficient murine BMMCs; also called Gads F92D; F92D-reconstituted; not shown: N-terminal twin-strep tag; C-terminal monomeric GFP (A206K) from pMIGR
T2 sequence: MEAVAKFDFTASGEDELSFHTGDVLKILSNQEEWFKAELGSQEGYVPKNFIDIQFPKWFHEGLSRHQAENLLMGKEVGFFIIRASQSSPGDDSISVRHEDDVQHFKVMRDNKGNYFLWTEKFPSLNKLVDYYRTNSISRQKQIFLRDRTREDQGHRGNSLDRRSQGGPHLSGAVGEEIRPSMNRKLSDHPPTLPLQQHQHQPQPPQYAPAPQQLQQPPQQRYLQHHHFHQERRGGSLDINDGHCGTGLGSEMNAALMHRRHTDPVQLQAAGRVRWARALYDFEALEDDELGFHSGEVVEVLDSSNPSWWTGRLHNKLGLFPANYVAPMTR

B1: MBP-Gads lacking the N-terminal SH3 (ΔN-SH3 Gads, Δ2-53) (other, not shown: large carriers; small tags and cut ends)
chain: MQFPKWFHEGLSRHQAENLLMGKEVGFFIIRASQSSPGDFSISVRHEDDVQHFKVMRDNKGNYFLWTEKFPSLNKLVDYYRTNSISRQKQIFLRDRTREDQGHRGNSLDRRSQGGPHLSGAVGEEIRPSMNRKLSDHPPTLPLQQHQHQPQPPQYAPAPQQLQQPPQQRYLQHHHFHQERRGGSLDINDGHCGTGLGSEMNAALMHRRHTDPVQLQAAGRVRWARALYDFEALEDDELGFHSGEVVEVLDSSNPSWWTGRLHNKLGLFPANYVAPMTR
notes: Deletion of residues 2-53; also called Gads ΔN; Gads lacking the N-SH3
B2: MBP-Gads lacking the linker (Δlinker Gads, Δ154-267) (other)
chain: MEAVAKFDFTASGEDELSFHTGDVLKILSNQEEWFKAELGSQEGYVPKNFIDIQFPKWFHEGLSRHQAENLLMGKEVGFFIIRASQSSPGDFSISVRHEDDVQHFKVMRDNKGNYFLWTEKFPSLNKLVDYYRTNSISRQKQIFLRDRTREDQQAAGRVRWARALYDFEALEDDELGFHSGEVVEVLDSSNPSWWTGRLHNKLGLFPANYVAPMTR
notes: Deletion of residues 154-267; also called lacking the linker domain; not shown: N-terminal MBP tag and its linker from pMAL-C5x (NEB)
B3: phospho-LAT (endogenous, TCR-stimulated Jurkat-derived dG32 T cells) (other, UniProt O43561-2 1-233, looked up)
chain: MEEAILVPCVLGLLLLPILAMLMALCVHCHRLPGSYDSTSSDSLYPRGIQFKRPHTVAPWPPAYPPVTSYPPLSQPDLLPIPRSPQPLGGSHRTPSSRRDSDGANSVASYENEEPACEDADEDEDDYHNPGYLVVLPDSTPATSTAAPSAPALSTPGIRDSAFSMESIDDYVNVPESGESAEASLDGSREYVNVSQELHPGAAKTEPAALSSQEAEEVEEEGAPDYENLQELN
modifications: tyrosine-phosphorylated after anti-TCR (C305) stimulation; detected with anti-phospho-LAT (pY132)
notes: Endogenous protein in lysates; also called pLAT; pY132-phosphorylated LAT
B4: full length MBP-tagged Gads (MBP-Gads), wild type (other, not shown: large carriers)
chain: T2 sequence with D92F
notes: Purified as monomeric and dimeric SEC fractions; also called full length Gads; Gads-MBP protein
B5: full length MBP-Gads F92A/R109A (other, not shown: large carriers; small tags and cut ends)
chain: T2 sequence with D92A, R109A
notes: Full length human Gads with double mutation; also called full length Gads F92A/R109A
B6: N-terminally twin-strep-tagged full length human Gads-GFP F92A/R109A (other)
chain: T2 sequence with D92A, R109A
notes: Expressed in dG32 T cells; also called Gads F92A/R109A; not shown: N-terminal twin-strep tag; C-terminal monomeric GFP (A206K) from pMIGR
B7: MBP-Gads SH2 F92A/R109A (other, not shown: large carriers; small tags and cut ends)
chain: MQFPKWFHEGLSRHQAENLLMGKEVGFFIIRASQSSPGDASISVRHEDDVQHFKVMADNKGNYFLWTEKFPSLNKLVDYYRTNSISRQKQIFLRDRTREDQ
notes: Double mutant in the context of MBP-Gads SH2; also called F92A/R109A SH2 mutant
B8: MBP-Gads SH2 R109A (other)
chain: B7 chain with A40F
notes: Point mutant in the context of MBP-Gads SH2; not shown: N-terminal MBP tag and its linker from pMAL-C5x (NEB)
B9: MBP-Gads SH2 R109D (other, not shown: large carriers; small tags and cut ends)
chain: B7 chain with A40F, A57D
notes: Point mutant in the context of MBP-Gads SH2
B10: MBP-Gads lacking the C-terminal SH3 (ΔCSH3 Gads, Δ274-328) (other)
chain: MEAVAKFDFTASGEDELSFHTGDVLKILSNQEEWFKAELGSQEGYVPKNFIDIQFPKWFHEGLSRHQAENLLMGKEVGFFIIRASQSSPGDFSISVRHEDDVQHFKVMRDNKGNYFLWTEKFPSLNKLVDYYRTNSISRQKQIFLRDRTREDQGHRGNSLDRRSQGGPHLSGAVGEEIRPSMNRKLSDHPPTLPLQQHQHQPQPPQYAPAPQQLQQPPQQRYLQHHHFHQERRGGSLDINDGHCGTGLGSEMNAALMHRRHTDPVQLQAAGRVTR
notes: Deletion of residues 274-328; also called lacking the C-SH3 domain; not shown: N-terminal MBP tag and its linker from pMAL-C5x (NEB)
B11: MBP-Gads lacking the C-terminal SH3 and linker (ΔC-SH3+linker, Δ154-328) (other)
chain: MEAVAKFDFTASGEDELSFHTGDVLKILSNQEEWFKAELGSQEGYVPKNFIDIQFPKWFHEGLSRHQAENLLMGKEVGFFIIRASQSSPGDFSISVRHEDDVQHFKVMRDNKGNYFLWTEKFPSLNKLVDYYRTNSISRQKQIFLRDRTREDQTR
notes: Deletion of residues 154-328; also called lacking the C-SH3 domain and the linker domain; not shown: N-terminal MBP tag and its linker from pMAL-C5x (NEB)
B12: MBP-Gads SH2 (SH2 only construct, residues Q54-Q153 of Gads), wild type (protein)
chain: T1 sequence (O75791 54-153)
B13: His-tagged Gads SH2 (His-SH2) (protein)
chain: MHHHHHHGSMQFPKWFHEGLSRHQAENLLMGKEVGFFIIRASQSSPGDFSISVRHEDDVQHFKVMRDNKGNYFLWTEKFPSLNKLVDYYRTNSISRQKQIFLRDRTREDQ

Columns and labels:
monomeric Gads SH2 = target: T1, monomeric Gads SH2; assay: Size exclusion chromatography of monomeric Gads SH2 incubated with LAT peptides; type: binding; conditions: 0.7 μM MBP-Gads SH2 monomeric fraction, 5 μM peptide, 15 minutes on ice
Description: FIG. 9A is a schematic representation of two possible modes of Gads binding to 2pY-LAT. […] In FIG. 9C, 0.7 μM full length MBP-Gads from the monomeric fraction, was incubated for 15 minutes at 37° C., either alone (solid line), or in the presence of 5 μM 2pY-LAT peptide (SEQ ID NO: 32, dotted line). […] 20 μM MBP-Gads SH2 from the dimeric fraction was incubated for 30 minutes on ice (blue) or at 37° C. for 15 minutes (red, solid line), followed by an additional 15 minutes at 37° C. in the presence of 40 μM of 2pY-LAT (SEQ ID NO: 32, red dotted line); and then resolved by size exclusion chromatography.
Fast protein liquid chromatography (FPLC)—MBP- and His-tagged proteins were resolved by size exclusion chromatography at 12° C., using an ÄKTA FPLC system (GE Healthcare), fitted with Superdex 200 10/300 or 16/60 HiLoad for MBP-tagged proteins or Superdex 75 10/300 for His-tagged proteins, in column buffer containing 20 mM HEPES pH 7.3, 100 mM NaCl, 1 mM EDTA, 10% glycerol.
Two possible modes of Gads binding to 2pY-LAT were envisioned, single and paired (FIG. 9A). To ensure the availability of both modes, a 7-fold molar excess of 2pY-LAT peptide was applied. In the absence of cooperativity, the large molar excess of unbound SH2-binding sites should favor unpaired binding (FIG. 9A, left).

[1] = target: the molecule itself; assay: analytical size exclusion chromatography of the dimeric fraction after incubation at 37°C; self-association
[2] = target: the molecule itself; assay: size exclusion chromatography, self-association
[3] = target: T2, N-terminally twin-strep-tagged full …; assay: streptactin pull-down of twin-strep Gads-GFP from dG32 cell lysates, western blot with anti-pY132-LAT
[4] = target: the molecule itself; assay: size exclusion chromatography, Superdex 200 10/300 GL; self-association (dimer)
Description: Size-Exclusion Chromatography and Multi-Angle Light Scattering (SEC-MALS)—The average molecular weight of Gads proteins was determined by SEC-MALS. The system consisted of an ÄKTA avant 25, coupled to a UV detector (GE Healthcare) and a miniDAWN triple-angle light-scattering detector (Wyatt Technology). […] Data collection and analysis was performed with Wyatt's ASTRA 6.1.1 software.

[5] = target: the molecule itself; assay: size exclusion chromatography; self-association
[6] = target: B3; assay: streptactin pull-down of twin-strep Gads-GFP from dG32 cell lysates, western blot with anti-pY132-LAT
[7] = target: the molecule itself; assay: size exclusion chromatography; self-association; remark: listed apart in the source
[8] = target: pY171-LAT peptide (singly phosphorylated on Y171); assay: ITC at 25 C, peptide injected into monomeric MBP-Gads SH2; KD = 1/KA, 1:1 model
[9] = target: pY171-LAT peptide (singly phosphorylated on Y171); assay: isothermal titration calorimetry, 1:1 binding model (Affinimeter), linked-parameter analysis of three repeats
[10] = target: the molecule itself; assay: size exclusion chromatography; self-association; remark: listed apart in the source
[11] = nano-DSF of dimeric MBP-Gads SH2, self-association
[12] = nano-DSF of dimeric His-SH2, self-association

Gads mobility shift on size exclusion chromatography (paired binding / dimeric form) (monomeric Gads SH2): dramatic shift towards the dimeric form
Molecule: DDpYVNVPESGESAEASLDGSREpYVNVSQE (DD[pY]VNVPESGESAEASLDGSRE[pY]VNVSQE) [2pY-LAT, 29-residue LAT peptide encompassing tyrosines 171 and 191, doubly phosphorylated]

Molecule: B1
binding result [1]: binds

Molecule: B2
binding result [2]: binds

Molecule: B3
binding result [3]: no binding

Molecule: B4
binding result [4]: binds

Molecule: B5
binding result [5]: no binding

Molecule: B6
binding result [6]: no binding

Molecule: B7
binding result [7]: no binding | Kd [8]: 335 nM | H [9]: -9.03 kcal/mol

Molecule: B8
binding result [10]: binds

Molecule: B9
binding result [10]: binds

Molecule: B10
binding result [2]: binds

Molecule: B11
binding result [2]: binds

Molecule: B12
temperature of subtle transition of the dimeric form (nano-DSF) [11]: approximately 33 °C | Kd [8]: 177 nM | H [9]: -7.23 kcal/mol

Molecule: B13
temperature of monomerization (first nano-DSF transition) [12]: 32.5 °C
